Measurements as given in the DeepSol protein solubility set.

Experiment: soluble on expression in E. coli; label from the status in PepcDB or PDB records

Sequence | soluble on expression in E. coli
GHMNVKLKVFHAGSLTEPMKAFKRAFEEKHPNVEVQTEAAGSAATIRKVTELGRKADVIATADYTLIQKMMYPEFANWTIMFAKNQIVLAYRNDSRYADEINSQNWYEILKRPDVRFGFSNPNDDPCGYRSLMAIQLAELYYNDPTIFDELVAKNSNLRFSEDNGSYVLRMPSSERIEINKSKIMIRSMEMELIHLVESGELDYFFIYKSVAKQHGFNFVELPVEIDLSSPDYAELYSKVKVVLANGKEVTGKPIVYGITIPKNAENRELAVEFVKLVISEEGQEILRELGQEPLVPPRADTAVPSLKAMVEVS | soluble
MSLRFIDKLYQANLGKLTAGISPAALGTAYYSWFAQLLQSPGSMLRLAYYPLLHANDYLSNLFKYDKPRDGKDVRFHTENWSYYPWRLWAEQFLQFEDWCLQASSKVPGIPLHVKRTVTFSTRQILDALSPSNFVLTNPDLLQETIRSNGQNLIRGTELAFQDFVEKITGSPPAGVENFIPGKQVAVTEGKVVYSNHLIELIQYTPQTEKVYKEPILILPAWIMKYYILDLLPENSLVNWLVRQGHTVFIVSWRNPTKEDRNIGLDDYYKLGAMDAINAVSNAIPHTKIHLMGYCLGGTLALLTAAAMAHDHDNRLKTLSLLAAQGDFIDAGELLLFITKSEVSFLKSMMWEQGYLDTKQMSGTFQMLRSYDLIWSKMVQDYMHGTQRGMIPLLAWNADATRMPYKMHSEYLEKLFLNNDFAEGRFILDGKPVVGENIRMPAFVVSTEKDHVAPWKSVYKTHLLINSDITFVLTNGGHNAGIVSEPGHEGRYYRIRERKMDSTYLDPTNWLKKAELREGSWWIAWHDWLVNHSSQKQVSAPKLDKNLPNAPGKYVLQKEGHHHHHH | not soluble
MISAHCNLRLLCSSDSSASASQVAGTTEVVENLVTNDNSPNIPEAIDRLFSDIANINRESMAEIADIQIEEMAVNLWNWALTIGGGWLVNEEQKIRLHYVACKLLSMCEASFASEQSIQRLIMMNMRIGKEWLDAGNFLIADECFQAAVASLEQLYVKLIQRSSPEADLTMEKITVESDHFRVLSYQAESAVAQGDFQRASMCVLQCKDMLMRLPQMTSSLHHLCYNFGVETQKNNKYEESSFWLSQSYDIGKMDKKSTGPEMLAKVLRLLATNYLDWDDTKYYDKALNAVNLANKEHLSSPGLFLKMKILLKGETSNEELLEAVMEILHLDMPLDFCLNIAKLLMDHERESVGFHFLTIIHERFKSSENIGKVLILHTDMLLQRKEELLAKEKIEEIFLAHQTGRQLTAESMNWLHNILWRQAASSFEVQNYTDALQWYYYSLRFYSTDEMDLDFTKLQRNMACCYLNLQQLDKAKEAVAEAERHDPRNVFTQFYIFKIAVIEGNSERALQAIITLENILTDEESEDNDLVAERGSPTMLLSLAAQFALENGQQIVAEKALEYLAQHSEDQEQVLTAVKCLLRFLLPKIAEMPESEDKKKEMDRLLTCLNRAFVKLSQPFGEEALSLESRANEAQWFRKTAWNLAVQCDKDPVMMREFFILSYKMSQFCPSDQVILIARKTCLLMAVAVDLEQGRKASTAFEQTMFLSRALEEIQTCNDIHNFLKQTGTFSNDSCEKLLLLYEFEVRAKLNDPLLESFLESVWELPHLETKTFETIAIIAMEKPAHYPLIALKALKKALLLYKKEEPIDISQYSKCMHNLVNLSVPDGASNVELCPLEEVWGYFEDALSHISRTKDYPEMEILWLMVKSWNTGVLMFSRSKYASAEKWCGLALRFLNHLTSFKESYETQMNMLYSQLVEALSNNKGPVFHEHGYWSKSD | not soluble
MPTLGFRFRAYTDEQTLRALKAQLKLACKIYNTLRWADIYFYQRDGKGLTQTELRQLALDLRKQDDEYKQLYSQVVQQIADRYYEARQRFFEGLARFPKEKKPHKYYSLVYPQYGWKILHVREIRKGSKKKLITLKLSNLGTFKVIVHRDFPLDKVKRVVVKLTRSERIYITFVVDHEFPKLPNTGKVVAIDVGVEKLLVTSDGEYFPNLRPYEKALWKVKHLHRELSRKKFLSNNWFKAKVKLARAYEYLKNLRTDLYMKLGKWFAEHYDVVVMEGIHAKQLVGKSLRSLRRRLSDVGFGELRGVLKYQLEKYGKKLILVNPAYTSKTCARCGYVKNDLSLSDRVFVCPNCGWIADRDYNASLNILRGSGSERPLVPVELRPLPVLWQGGAMKQEAPSFMRGLEHHHHHH | not soluble
MPSTLQGTFHTYRIIRRLGQGAFGEVSLAGVLETGEVVALKRIHIRNTGGIPDVVVREIKALQSVSHPNVVALLDVFPKGQAIYLVQEYCTTDLAALLRRLPAPPPERIAKGLMLQLCRGLEALHAEGIMHRDVKPSNTLLSAASGTAKLADCGLARPLDGGERPAYTHAVATRWYRAPELLYGARAYGPAVDVWALGLVFAELLGLSPLVPGDNDIDQLGRVIATFGSMEPVWLGVRALPDWGKIAFPHCEPLPLGDLLPGAPAAALEFLAAFLRYDPAKRITAACAVRSTYLTATQPL | not soluble
MAHTGENVLKGLPLKAIALAIALSNPVSAQTLEQAVSITLASNPELKSAFNQFKSREYDAEASSGAYLPKIDLDAGIGYEAINPAESSGNRNTDLTRKDATLTLTQLIWDGSATLNDMDRTAAEAEADRYQLLADASNMALEVAKIYLDATKASEILTLSENNLAIHKDIYRDIKKRADSGIGSTADVTQVEARLAKAHSNLVAAQNNLFDIYTQFRRLVGQEPVSLEFPRADQNAIPPTLENALNMAQENHPVIKVAQADVDAARFQYKQSKAPNYPTLSFEAAQSWRNDAGGIEGSSDELSAMLRLRYNLYNGGSDSDRTESAAYQLNRSKDLREKTFRTVEEGLRLSWSALDLTLQQKQFLADHVDSASKTVVSYRKQYQIGQRTLLDLLNTENELFEARKDYLDARYAEQYAKYRVMNASGNLLDALRVDIPQEWTAKVEY | not soluble
SNAMTTPIRVVVWNEFRHEKKDEQVRAIYPEGMHTVIASYLAEAGFDAATAVLDEPEHGLTDEVLDRCDVLVWWGHIAHDEVKDEVVERVHRRVLEGMGLIVLHSGHFSKIFKKLMGTTCNLKWREADEKERLWVVAPGHPIVEGIGPYIELEQEEMYGEFFDIPEPDETIFISWFEGGEVFRSGCTFTRGKGKIFYFRPGHETYPTYHHPDVLKVIANAVRWAAPVNRGEIVFGNVKPLEPIKAKQGGVTQ | soluble
MKRFNVLKYIRTTKANIQTIAMPLTTKPLSLKINAALFDVDGTIIISQPAIAAFWRDFGKDKPYFDAEHVIHISHGWRTYDAIAKFAPDFADEEYVNKLEGEIPEKYGEHSIEVPGAVKLCNALNALPKEKWAVATSGTRDMAKKWFDILKIKRPEYFITANDVKQGKPHPEPYLKGRNGLGFPINEQDPSKSKVVVFEDAPAGIAAGKAAGCKIVGIATTFDLDFLKEKGCDIIVKNHESIRVGEYNAETDEVELIFDDYLYAKDDLLKW | soluble
NDAKKYIVSVLILLVAGMFGGCIKEDYSDCPRPFRLTVRAWDADMQDITETGAVQRVVIFVFDETGRRIDRLMMDAAQVAARKPIPLEYDGPTTVSFVAWANPDDHMLEETANVQNVKDLFFRLSSTDGIAQSPGDLFSGVLTCPIEYGSIEQGTDQTVDIYRRTAQVHIIIRGYQEWLEANGPRQLPDYADILLGETPDTYTGLAELIGNAVQYRPDGQIQNGDFISPIFRVYPTLDTTPLHLKLYAYGQELLNISTGSDGVPFIPVIGKMLNIYIDLRGANLNVLVSVTPWDVVQQYAE | not soluble
MGNIANEAKLLKLDGKAYRNDFMLGNGKGHARDNLSRQRPGTSKRLSCSQLESLYSSNSMAKNIVDIPAEDLTRNGWSLKMQDDKVKALYESKLRQLKAKERLQQLFTYERLYGDGFVSIGTIEKREYSLSEPLDFENIKSVPYINAFSGKKISNRIIDEDVFSPNYGQIESFEVNNRSNNSRIHLLNNTTYSRATTIHRSRVLHQQNLRFEDELEGSSLLENLYDILTVADTSVWSVGQILYDFIFKVYKSADVRSLTPQDKLEIETKMDYQFRTEAIAIIDKEESLGKESSSVAGIGELLDFVWDYLAGAARMPKTVLKGQEGGTVTGAQYDVMNYYSRITAIQENQLRPHLEYLMRCLMWAEDECGGRLDPDSIEWSVEFNPLWNVDSKTDAEIRKLTAETDKIYIEAGVSDPDDVHEARFGRFGITETSKFNADSLSRDELDKMAAVVYENYKQDRDNEK | not soluble
MGSDKIHHHHHHMFAHCDVNAFYASCQTAFRPDLKGRPVVVLSNNDGCVIARSAEAKPFVKMGEPYFKQKAAFLRHGVVAFSSNYELYADMSSRVMATLEELTPRCEIYSIDEAFCDVSGVRHCRDLTDFGREIRATVLQRTHLTLGVGIAQTKTLAKLANHAAKQWPRQTGGVVDLSCPQRQRKLMALLPVSEVWGIGRRIGKKLEAMGIGTVLQLAESDIRFIRKHFTVVLERTVRELRGEPCLALEEFAPAKQEIICSRSFGDRITAYEDMRQAICSYAARAAEKLRGEHQYCRFVSAFVKTSPFALNEPYYGNSASLKLLTPTQDSRDIIAAATSCLDAIWKAGHRYQKAGVMLGDFYSQGVAQLNLFDELAPRHNSARLMQVLDQLNAKNGRGALYFAGQGIQQQWQMKREMLSPRYTTRYGDLLRVR | not soluble
MGSDKIHHHHHHMERTSDYWFMIEPYVHINIANGYMLLYNTLDKETIISNNEKVINLLEELLQDENCGVTILKNEQYRQNDIHSFITNLREKYMGDIIDISLSKGKPIQILPHTNFCNKRNEKYNFIKNANLLHFLNEIIIHLDHILDQDKLIDYLQSMPDNITYSISGDLKHIAKFDKLVDFLNQYNSSKKIICNYINFAIPASVCKNIFLYKIHIHFPIDIKQLIITTQSLKDQNNLFELIFDIASLDDYLKAWEIIEEYQIDKYQFNPIYTGYNIDFFKENVFLKKSDILSTSMSIKDFFIKQMINNNDFGKINIMPNGDVHSNINYPALGNICTHSIFELIQKEIEEGKSWLRVRNQEPCNACIYQWLCPSPSDYEIMIGQTNLCHVNIHNPNCENL | not soluble
MSLKLIGMLDSPYVRRVAISLKSLGLPFEHHSLSVFSTFEQFKAINPVVKAPTLVCEGGEVLMDSSLIIDYLETLAGPQRSLMPTALPQRLRELRLVGLALAACEKSVQIVYERNLRPAEKQHGPWLERVGGQLQAAYGELEQELQKQPLPRDGSLGQAGISLAVAWSFSQMMVADQFNPGQFPAVRGFAEYAEQLPVFLATPATEGHHHHHH | soluble
MSLNSEAFTGNAAQRFLFSSSDGTKIVSIADRGHLRWCHSTSTTYKSLDFDLQFEGKVEGAVSSTTADYVCIYNRDELHVLEVPWMYSGEENGLKHLCHIYSHKFDENHSIKQVLFHPKSYLDSTILVLTNDDSIFMINTDDNRSDKNMINLNSKNSALGLYDRINDIQKIIFSQDGLSLLILSAEEGCDIFTIYPCLPRRWDISLHEVDTLFAKSLLLYNNMNVNTTPQEKRNIVKQLNFMEKIRGQKTAFRNDKKPLILEDAYLNAQPQGPFSMTPYPNELYDFMATDINIIQITQNISLLAIAFSNGTVLLFLSDLEPIMSWDISRFPGSNSLALLEQIKLEITDNAKFLSIPGTYGKFVVTDNVKSNFFVNTCDWSTILAQIIDDSDIKLLANLKVKSNIENLQQLATTFKSIIYWKNENISCNYIISDKKIEELDEGHHHHHH | soluble
MNYQNDDLRIKEIKELLPPVALLEKFPATENAANTVAHARKAIHKILKGNDDRLLVVIGPCSIHDPVAAKEYATRLLALREELKDELEIVMRVYFEKPRTTVGWKGLINDPHMDNSFQINDGLRIARKLLLDINDSGLPAAGEFLDMITPQYLADLMSWGAIGARTTESQVHRELASGLSCPVGFKNGTDGTIKVAIDAINAAGAPHCFLSVTKWGHSAIVNTSGNGDCHIILRGGKEPNYSAKHVAEVKEGLNKAGLPAQVMIDFSHANSSKQFKKQMDVCADVCQQIAGGEKAIIGVMVESHLVEGNQSLESGEPLAYGKSITDACIGWEDTDALLRQLANAVKARRG | soluble
